The target in the assay is Recombinant DnaJ-1-HA (Drosophila, UniProt Q24133 1-334). Briefly: co-IP.
Sequence of Recombinant DnaJ-1-HA (Q24133 whole entry): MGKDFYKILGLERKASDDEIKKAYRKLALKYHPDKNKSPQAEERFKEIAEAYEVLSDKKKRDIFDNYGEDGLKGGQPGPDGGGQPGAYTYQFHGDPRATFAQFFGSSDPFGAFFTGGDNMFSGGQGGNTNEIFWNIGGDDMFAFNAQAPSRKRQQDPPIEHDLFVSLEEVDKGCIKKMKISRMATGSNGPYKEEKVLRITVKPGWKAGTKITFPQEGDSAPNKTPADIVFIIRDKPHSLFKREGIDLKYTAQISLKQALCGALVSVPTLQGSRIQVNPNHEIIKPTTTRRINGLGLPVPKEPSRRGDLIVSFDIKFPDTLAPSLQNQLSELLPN

B1: Recombinant His-MLF (natural protein, Drosophila, UniProt Q9NKV0-2 1-309, looked up)
chain: MSLFGALMGDFDDDLGLMNNHMNHTMNAMNMQMRSMNRLMNSFMPDPFMQVSPFDQGFQQNALMERPQMPAMPAMGLFGMPMMPNFNRLLNADIGGNSGASFCQSTVMTMSSGPDGRPQIYQASTSTKTGPGGVRETRRTVQDSRTGVKKMAIGHHIGERAHIIEKEQDMRSGQLEERQEFINLEEGEAEQFDREFTSRASRGAVQSRHHAGGMQAIMPARPAAHTSTLTIEPVEDDDDDDDDCVIQEQQPVRSSAGRHYSSAPTAPQNSIHPHPYAANPRRQQRAVKHFHTEDEAASSYKAVKRGKKK
Regarding B1, the binding result is on record as “binds”.

For the origin of these results see publication PMC5841623 (Journal of molecular biology, 2016).
